Laboratory results published in patent US7923535B2, “Tryptophan as a functional replacement for ADP-ribose-arginine in recombinant proteins” (The United States of America as represented by the …, priority 2002, dated 2011).

Columns and labels:
[1] = tested on: A549 cells; experiment: Chromium release assay (defensin cytotoxicity); type: cell-based; conditions: 1.5 to 24 μM, 18 hours, 37° C., serum-free RPMI; compared with unmodified HNP-1
Method: Chromium-labeled A549 cells (American Type Culture Collection) were incubated (18 hours, 37° C.) in 100 μl of serum-free RPMI (Gibco Fluids Inc., Rockville, Md.) containing HNP-1, ADP-ribosyl-HNP-1, or HNP-1 with either an R:W substitution or an R:F substitution (1.5 to 24 μM) to quantify defensin cytotoxicity. Cytotoxicity is measured as the amount of chromium released from the cells (Panyutich et al., “Human neutrophil defensins and serpins form complexes and inactivate each other,” Am. J. Respir. Cell. Mol. Biol. 12:351-357, 1995).

[2] = target: T1, HNP-1 (Homo sapiens, UniProt P59665); experiment: Blocking of HNP-1 cytotoxic activity (radial diffusion and chromium release assays after pre-incubation with HNP-1); type: cell-based; conditions: pre-incubated 1 hour at 37° C. with HNP-1 (100 nM, E. coli; 12 μM, chromium release)
T1 sequence (P59665 65-94 limits assumed): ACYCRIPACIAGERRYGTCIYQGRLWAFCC
Method: HNP-1 (100 nM) is incubated for 1 hour at 37° C. with ADP-ribosylated HNP-1, or HNP-1 with either an R:W substitution or an R:F substitution (0-800 nM) before the initiation of the cytotoxicity assay on E. coli.
HNP-1 (12 μM) is incubated with ADP-ribosyl-HNP-1, or HNP-1 with either an R:W substitution or an R:F substitution (1.5-12 μM) for 1 hour at 37° C. before the initiation of the chromium release assay.

[3] = tested on: A549 cells; experiment: IL-8 production by A549 cells (indirect ELISA); type: cell-based; conditions: concentrations of 0.75 and 1.5 μM; 12 or 24 hours; compared with the unmodified peptide
Method: […] Culture medium is sampled after 12 or 24 hours of incubation and IL-8 content is assayed by indirect ELISA according to the manufacturer's instructions (R & D System Inc. Minneapolis, Minn.).

[4] = tested on: CD3^+ T-cells; experiment: Chemotaxis assay; type: cell-based, human; conditions: 0.025 to 25 nM in lower chamber, 4 hours, 37° C.
Method: CD3^+ T-cells are isolated from human peripheral blood prepared by leukapheresis (NIH, Department of Transfusion Medicine, Bethesda, Md.) (Chertov et al., J. Biol. Chem. 271:2935-2940, 1996) and suspended in migration medium (RPMI 1640, 0.5% bovine serum albumin, 25 mM HEPES). Inserts coated with collagen IV (Becton Dickinson Labware, Bedford, Mass.) are placed into 24-well culture plates to form upper and lower chambers in each well. Upper chambers are wetted with migration medium, then 500 μl of migration medium with or without ADP-ribosyl-HNP-1, HNP-1, or with HNP-1 with either an R:W substitution or an R:F substitution (0.025 to 25 nM) are added to the lower chamber. Cells are added to the upper chamber and plates are incubated at 37° C. in 5% CO2 for 4 hours. Lymphocytes that migrate to the lower chamber are harvested by centrifugation and counted in a hematocytometer.

[5] = tested on: Escherichia coli ATCC43827; conditions: compared with unmodified HNP-1; see PCT/US03/04649; cited from earlier work

ADP-ribosylated HNP-1: human neutrophil peptide HNP-1 (alpha defensin) with ADP-ribosylated arginine
cytotoxicity for A549 cells (chromium released) [1]: less cytotoxic than unmodified HNP-1
effect on the cytotoxic activity of HNP-1 [2]: blocks the cytotoxic activity of HNP-1 in a concentration-dependent manner
IL-8 release [3]: significantly higher
ability to recruit T cells [4]: retain their ability to recruit T cells
cytotoxicity for E. coli ATCC43827 in the radial diffusion assay [5]: less cytotoxic than unmodified HNP-1
